Patent publication US8530168B2, “Fusion protein comprising a Caspase domain and a nuclear hormone receptor binding domain and methods and uses thereof” (Helmholtz Zentrum Munich Deutsches Forschungszentrum fuer …, priority 2007, dated 2013)

How the values were obtained:
Type in all cases: cell-based, mouse
MEF5/N9 cells [1] = test: Transient cotransfection of ER(T2) fusion expression vectors with β-galactosidase reporter; β-galactosidase activity in lysates; conditions: 10^−8 M 4-OH-tamoxifen, 48 h; relative to Cre-ER(T2) without 4-OH-tamoxifen
Method in brief: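 MEF5/N9 mouse embryonic fibroblasts transiently cotransfected with pCMV-β-gal reporter (100 ng) plus ER(T2) fusion vector (100 ng; 50 ng for Casp9 constructs), then induced with 10^−8 M 4-OH-tamoxifen for 48 h. Lysate β-galactosidase read by chemiluminescence (RLU), mean of two wells, expressed relative to uninduced pCAG-Cre-ER(T2) control set at 1.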

MEF5/N9 cells [2] = test: MTT cytotoxicity assay of stably transfected MEF5/N9 clones; conditions: 10^−8 M 4-OH-tamoxifen, 48 h
Method in brief: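 Hygromycin-selected MEF5/N9 clones stably carrying ER(T2) fusion constructs, 4·10^3 cells/well, treated 48 h with or without 10^−8 M 4-OH-tamoxifen, in triplicate. Survival measured by MTT (0.5 mg/ml, 4 h, 37° C), formazan dissolved in HCl/isopropanol, absorbance at 570 nm.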

MEF5/N9 cells [3] = test: Transient cotransfection of ER(T2) fusion expression vectors with β-galactosidase reporter; β-galactosidase activity in lysates; conditions: no 4-OH-tamoxifen; transient transfection 50 or 100 ng vector; relative to Cre-ER(T2) without 4-OH-tamoxifen
MEF5/N9 cells [4] = test: Visible phenotypic changes / viability of stably transfected MEF5/N9 clones on 4-OH-tamoxifen treatment; conditions: 10^−8 M 4-OH-tamoxifen, 24 h
Method in brief: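 Hygromycin-selected MEF5/N9 clones stably expressing ER(T2) fusion proteins were plated at 1·10^5 cells/well and next day given 10^−8 M 4-hydroxy-tamoxifen. Cell death was judged from phase-contrast micrographs at 10- or 20-fold magnification taken 24 h after induction.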

B1: Casp9full-ER(T2): full length murine Caspase-9 fused to ER(T2) ligand binding domain, SEQ ID NO: 29 (protein)
chain: MDEADRQLLRRCRVRLVSELQVAELWDALLSRELFTRDMIEDIQQAGSGSRRDQARQLVTDLETRGRQALPLFISCLEDTGQGTLASLLQSGRQAAKQDPEAVKPLDHLVPVVLGPMGLTAKEQRVVKLDPSQPAVGNLTPVVLGPEELWPARLKPEVLRPETPRPVDIGSGGAHDVCVPGKIRGHADMAYTLDSDPCGHCLIINNVNFCPSSGLGTRTGSNLDRDKLEHRFRWLRFMVEVKNDLTAKKMVTALMEMAHRNHRALDCFVVVILSHGCQASHLQFPGAVYGTDGCSVSIEKIVNIFNGSGCPSLGGKPKLFFIQACGGEQKDHGFEVACTSSQGRTLDSDSEPDAVPYQEGPRPLDQLDAVSSLPTPSDILVSYSTFPGFVSWRDKKSGSWYIETLDGILEQWARSEDLQSLLLRVANAVSAKGTYKQIPGCFNFLRKKLFFKTSVEPSAGDMRAANLWPSPLMIKRSKKNSLALSLTADQMVSALLDAEPPILYSEYDPTRPFSEASMMGLLTNLADRELVHMINWAKRVPGFVDLTLHDQVHLLECAWLEILMIGLVWRSMEHPVKLLFAPNLLLDRNQGKCVEGMVEIFDMLLATSSRFRMMNLQGEEFVCLKSIILLNSGVYTFLSSTLKSLEEKDHIHRVLDKITDTLIHLMAKAGLTLQQQHQRLAQLLLILSHIRHMSNKGMEHLYSMKCKNVVPLYDLLLEAADAHRLHAPTSRGGASVEETDQSHLATAGSTSSHSLQKYYITGEAEGFPATA
modifications: fusion protein Casp9full-ER(T2)
With B1 the “relative β-galactosidase activity in presence of 4-OH-tamoxifen compared to the negative control” value (MEF5/N9 cells [1]) was 7%, the “cell viability in the presence of 4-OH-tamoxifen (MTT)” value (MEF5/N9 cells [2]) was 6% and the “basal toxicity: relative β-galactosidase activity compared to the negative control in absence of 4-OH-tamoxifen” value (MEF5/N9 cells [3]) was 62%. The “4-OH-tamoxifen-dependent cell death, phenotype of stable clones” value (MEF5/N9 cells [4]) was “died in the presence of 4-OH-tamoxifen within 24 h” and the “4-OH-tamoxifen-dependent cell death, phenotype of stable clones” value (MEF5/N9 cells [4]; listed as Casp9fullER) was “substantial cell death”.
